Results on one molecule are retold here after patent publication US20140301945A1 (NEURIMMUNE, published 2014).

For assay [1], the target named is T1, wild type SOD1 from human erythrocytes (physiological dimers) (human, UniProt P00441 2-154).
T1 construct: Purified from human erythrocytes (Sigma-Aldrich); homodimer; control incubated in Tris acetate buffer without oxidants; also called Native SOD1; native human SOD1 dimers
As to the kind of experiment: direct ELISA, native human SOD1 dimers coated at 20 µg/ml.
Procedure: (§1) Primary antibodies were diluted to the indicated concentrations and incubated 1 h at RT. Binding was determined using either a donkey anti-human IgG Fcγ-specific antibody conjugated with HRP or a goat anti-mouse IgG (H+L)-specific antibody conjugated with HRP, followed by measurement of HRP activity in a standard colorimetric assay.
(§2) The EC₅₀ of the different human-derived SOD1-specific antibodies for native human SOD1 dimers, denatured/oxidized human SOD1 and recombinant SOD1 was determined by direct ELISA with coating of the different SOD1 species at 20 μg/ml concentration.

For assay [2], the target named is T2, recombinant human SOD1 (biomol, Hamburg) (human, UniProt P00441 2-154, limits assumed).
T2 construct: Bought protein; also called recombinant human superoxide dismutase 1; Recombinant SOD1
T2 sequence (P00441 2-154 limits assumed): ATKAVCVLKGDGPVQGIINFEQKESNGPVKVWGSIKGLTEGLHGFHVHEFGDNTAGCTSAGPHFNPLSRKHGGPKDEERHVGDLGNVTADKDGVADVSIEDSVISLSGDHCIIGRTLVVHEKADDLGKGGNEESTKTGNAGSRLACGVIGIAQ
The assay can be described thus: direct ELISA, recombinant SOD1 coated at 20 µg/ml. Background: An ELISA detects its analyte on a solid surface through an enzyme-linked reagent.
Procedure: as §1, §2

The target in another assay is T3, bovine serum albumin (bovine, UniProt P02769 25-607).
T3 construct: Control antigen in ELISA; also called BSA
T3 sequence (P02769 25-607 limits assumed): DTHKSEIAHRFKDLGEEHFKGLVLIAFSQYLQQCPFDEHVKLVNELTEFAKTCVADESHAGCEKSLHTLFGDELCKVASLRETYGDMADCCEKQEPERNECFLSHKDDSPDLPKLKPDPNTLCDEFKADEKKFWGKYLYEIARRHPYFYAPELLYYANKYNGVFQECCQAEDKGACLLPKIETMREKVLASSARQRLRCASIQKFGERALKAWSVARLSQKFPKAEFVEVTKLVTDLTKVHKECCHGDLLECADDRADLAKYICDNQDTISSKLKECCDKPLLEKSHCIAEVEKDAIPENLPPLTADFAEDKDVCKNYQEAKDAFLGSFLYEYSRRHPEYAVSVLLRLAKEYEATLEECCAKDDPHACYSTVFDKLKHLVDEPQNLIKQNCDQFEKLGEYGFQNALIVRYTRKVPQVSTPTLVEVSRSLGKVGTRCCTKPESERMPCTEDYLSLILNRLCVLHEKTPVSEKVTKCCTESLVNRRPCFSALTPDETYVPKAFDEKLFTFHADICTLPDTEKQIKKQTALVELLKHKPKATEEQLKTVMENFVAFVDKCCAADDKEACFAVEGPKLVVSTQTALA
As to the kind of experiment: direct ELISA, BSA coated at 3.3 µg/ml.

The target of assay [3] is T2, recombinant human SOD1 (biomol, Hamburg). As to the kind of experiment: direct ELISA, recombinant human SOD1 coated at 0.1 µg/ml.
Procedure: (§3) Binding was determined using either a goat anti-mouse IgG antibody (Jackson immunoResearch, Newmarket, UK) or a donkey anti-human IgGγ (Jackson immunoResearch, Newmarket, UK) antibody conjugated with HRP, followed by measurement of HRP activity in a standard colorimetric assay. The EC₅₀ values were estimated by a non-linear regression using GraphPad Prism (San Diego, USA) software.
Assay [4] has the same target. As to the kind of experiment: direct ELISA, recombinant human SOD1 coated at 1 µg/ml.
Procedure: as §3
Assay [5] has the same target. As to the kind of experiment: direct ELISA, recombinant human SOD1 coated at 0.1 µg/ml. The source holds these as a separate data set.
For assay [6] the target is unchanged. The assay can be described thus: direct ELISA, recombinant human SOD1 coated at 3.3 µg/ml.
Procedure: Binding was determined using a donkey anti-human IgGγ antibody (Jackson immunoResearch, Newmarket, UK) conjugated with HRP, followed by measurement of HRP activity in a standard colorimetric assay.
The EC₅₀ values were estimated by a non-linear regression using GraphPad Prism (San Diego, USA) software.
Assay [7] has as its target T4, in vitro misfolded/aggregated human SOD1 (metal-catalyzed oxidation) (human, UniProt P00441 2-154, oxidized by metal-catalyzed oxidation (4 mM ascorbic acid, 0.2 mM CuCl2, 48 hours at 37 C); residues not stated).
T4 construct: also called Oxidized SOD1; in vitro aggregated human SOD1 dimers
As to the kind of experiment: direct ELISA, in vitro aggregated human SOD1 coated at 34 µg/ml.

The target in assay [8] is T4, in vitro misfolded/aggregated human …. As to the kind of experiment: direct ELISA, oxidized human SOD1 coated at 20 µg/ml.
Procedure: as §1, §2
The target of assay [9] is T5, in vitro denatured human SOD1 (human, UniProt P00441 2-154).
T5 construct: also called Denatured SOD1; unfolded SOD1
T5 sequence (P00441 2-154 limits assumed): as the sequence (P00441 2-154 limits assumed) above
The assay can be described thus: direct ELISA, denatured human SOD1 coated at 20 µg/ml.
Procedure: as §1, §2

The target in assay [10] is T2, recombinant human SOD1 (biomol, Hamburg). The assay can be described thus: direct ELISA, recombinant human SOD1 coated at 10 µg/ml.
Procedure: as §3
For assay [11] the target is unchanged. The assay can be described thus: direct ELISA, recombinant human SOD1 coated at 1 µg/ml. The source holds these as a separate data set.
Procedure: as §3
Assay [12] has the same target. As to the kind of experiment: direct ELISA, recombinant human SOD1 coated at 10 µg/ml. The source holds these as a separate data set.
The target is the same in assay [13]. The assay can be described thus: direct ELISA, recombinant human SOD1 coated at 30 µg/ml.
Procedure: as §3
Assay [14] addresses T1, wild type SOD1 from human erythrocytes …. The assay can be described thus: direct ELISA, physiological human SOD1 dimers coated at 34 µg/ml.
Procedure: Non-specific binding sites were blocked for 1 hr at RT with PBS/0.1% Tween®-20 containing 2% BSA (Sigma-Aldrich, Buchs, Switzerland). […] Binding was determined using either a goat anti-mouse IgG antibody (Jackson immunoResearch, Newmarket, UK) or a donkey anti-human IgGγ antibody (Jackson immunoResearch, Newmarket, UK) conjugated with HRP, followed by measurement of HRP activity in a standard colorimetric assay. EC₅₀ values were estimated by a non-linear regression using GraphPad Prism software (San Diego, USA).

T4 sequence (P00441 2-154 limits assumed): as above
T1 sequence (P00441 2-154 limits assumed): as above
Source text for bovine serum albumin: Non-specific binding sites were blocked for 2 hr at RT with PBS containing 2% BSA (Sigma-Aldrich, Buchs, Switzerland) and 0.5% Tween20.

B1: NI-204.10A8 (antibody, human IgG1, V domains shown)
VH: EVQLVESGAEVKEPGSSVRVSCKTSGGSFNRHVITWVRQAPGQGLEWMGEIIPFFGTPKYAPKFQGRVTIIADASTSTFFLDVKSLTSEDTALYFCWIVVVSVVQRREDFWGQGILVTVSS
VL: EIVLTQSPSSLSASVGDTVTITCRSSQNISNYLSWFQHKPGKAPRILVYAASTLQTGVPSRFSGRGSGTIFTLSITSLQSEDYATYYCQQNDKIPRTFGQGTKVEIK
Broadly, the EC50 is the concentration at which the effect is half-maximal. For the molecule B1, the EC50 is > 100 nM in assay [1]; 1 nM in assay [2]; 95.9 nM in [3]; 19 nM in assay [4]; 96 nM in assay [5]; 2.7 nM in assay [6]. For the same molecule, the EC50 was 29.5 nM in [7]; > 100 nM in assay [8]; > 100 nM in [9]; 2.1 nM in assay [10]; 18.7 nM in assay [11]; 2 nM in [12]. The EC50 in assay [13] came out at 2.2 nM; in assay [14], 19.1 nM. The binding result with bovine serum albumin is “no binding”.
